This assay has as its target T1, CHO cell expressed recombinant human beta secretase proteolytically cleaved with HIV protease (human, UniProt P56817 61-453, glycosylated (CHO cell expressed)).
T1 construct: N-terminus at V40 after cleavage of the F39-V40 bond; The transmembrane and cytoplasmic domains are deleted; also called HIV protease treated beta secretase; processed enzyme
The assay is described as follows: affinity chromatography, peptide immobilised on resin.

Non-standard residues stand in square brackets, D forms with d. No end group written: not given here. Sta = CC(C)C[C@H](N)[C@@H](O)CC(=O)O

T1 sequence (P56817 other isoform, or with tags, fused parts or gaps): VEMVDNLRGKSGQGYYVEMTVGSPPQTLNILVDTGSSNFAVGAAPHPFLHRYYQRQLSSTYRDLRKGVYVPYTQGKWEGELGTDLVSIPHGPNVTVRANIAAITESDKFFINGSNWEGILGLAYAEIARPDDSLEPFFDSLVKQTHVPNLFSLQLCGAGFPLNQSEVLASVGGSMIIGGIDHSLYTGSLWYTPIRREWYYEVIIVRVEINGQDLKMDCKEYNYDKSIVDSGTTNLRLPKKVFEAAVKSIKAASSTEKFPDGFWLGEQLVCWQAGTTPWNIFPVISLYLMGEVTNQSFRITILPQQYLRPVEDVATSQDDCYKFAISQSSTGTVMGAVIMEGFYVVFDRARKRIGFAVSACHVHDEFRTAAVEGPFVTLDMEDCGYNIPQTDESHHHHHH

SEVN[Sta]VAEFRGGC (also: coupled to Sulfolink resin (via Cys)) [synthetic peptide Ser-Glu-Val-Asn-Sta-Val-Ala-Glu-Phe-Arg-Gly-Gly-Cys (Sta=statine)]: the binding result is “binds”.

The values above are taken from patent US7384773 (Pfizer, dated 2008).
